Patent US20200289646A1

Biological target: human mesothelin (MSLN) (human) (UniProt Q13421)
Experiment: cell-based or functional assay

Sequence of human mesothelin (MSLN) (human) (Q13421 296-606 limits assumed): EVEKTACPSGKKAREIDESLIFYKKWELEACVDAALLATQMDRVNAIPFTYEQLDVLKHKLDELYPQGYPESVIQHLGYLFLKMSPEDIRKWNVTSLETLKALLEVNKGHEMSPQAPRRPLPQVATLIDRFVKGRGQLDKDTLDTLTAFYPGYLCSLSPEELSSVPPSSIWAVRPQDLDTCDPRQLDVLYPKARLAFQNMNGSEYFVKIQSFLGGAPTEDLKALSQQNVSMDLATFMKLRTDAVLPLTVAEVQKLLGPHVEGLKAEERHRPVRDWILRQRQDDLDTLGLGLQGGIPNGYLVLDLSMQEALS

TDCC Average EC50 [M], OVCAR8 cells, human T cells [M]	Binder
1.7e-09	MSLN targeting trispecific protein 4A2 (protein, part only; not given: Albumin and CD3 binders, linkers, part only) chain, part: QVQLVESGGGLVQAGGSLRLSCAASGSTFGINAMGWYRQAPGKQRELVAVISRGGSTNYADSVKGRFTISRDNAENTVSLQMNTLKPEDTAVYFCNARTYTRHDYWGQGTQVTVSSHHHHHH
2.4e-12	MSLN targeting trispecific protein 7F1 (protein, part only; not given: Albumin and CD3 binders, linkers, part only) chain, part: QVQLVESGGGLVQAGGSLRLSCAASAIGSINSMSWYRQAPGKQREPVAVITDRGSTSYADSVKGRFTISRDNAKNTVYLQMNSLKPEDTAIYTCHVIADWRGYWGQGTQVTVSSHHHHHH
7.3e-13	MSLN targeting trispecific protein 2F4 (protein, part only; not given: Albumin and CD3 binders, linkers, part only) chain, part: QVQLVESGGGLVQAGGSLRLSCTTSTTFSINSMSWYRQAPGNQREPVAVITNRGTTSYADSVKGRFTISRDNARNTVYLQMDSLKPEDTAIYTCHVIADWRGYWGQGTQVTVSSHHHHHH
5.2e-11	MSLN targeting trispecific protein 2D1 (protein, part only; not given: Albumin and CD3 binders, linkers, part only) chain, part: QVQLVESGGGLVQAGGSLRLSCAASTTSSINSMSWYRQAQGKQREPVAVITDRGSTSYADSVKGRFTISRDNAKNTVYLQMNSLKPEDTAIYTCHVIADWRGYWGQGTQVTVSSHHHHHH
3.6e-09	MSLN targeting trispecific protein 5G2 (protein, part only; not given: Albumin and CD3 binders, linkers, part only) chain, part: QVQLVESGGGLVQAGGSLRLSCAASGSTFGNKPMGWYRQAPGKQRELVAVISSDGGSTRYAALVKGRFTISRDNAKNTVYLQMESLVAEDTAVYYCNALRTYYLNDPVVFSWGQGTQVTVSSHHHHHH
2.4e-08	MSLN targeting trispecific protein 3F2 (protein, part only; not given: Albumin and CD3 binders, linkers, part only) chain, part: QVQIVESGGGLVQAGGSLRLSCVASGLTYSIVAVGWYRQAPGKEREMVADISPVGNTNYADSVKGRFTISKENAKNTVYLQMNSLKPEDTAVYYCHIVRGWLDERPGPGPIVYWGQGTQVTVSSHHHHHH
1e-09	MSLN targeting trispecific protein 5D4 (protein, part only; not given: Albumin and CD3 binders, linkers, part only) chain, part: QVQLVESGGGLVQAGGSLRLSCVASGRTDRITTMGWYRQAPGKQRELVATISNRGTSNYANSVKGRFTISRDNAKNTVYLQMNSLKPEDTAVYYCNARKWGRNYWGQGTQVTVSSHHHHHH
5.5e-12	MSLN targeting trispecific protein 7H2 (protein, part only; not given: Albumin and CD3 binders, linkers, part only) chain, part: QVQLVESGGGLVQAGGSLRLSCAFSGTTYTFDLMSWYRQAPGKQRTVVASISSDGRTSYADSVRGRFTISGENGKNTVYLQMNSLKLEDTAVYYCLGQRSGVRAFWGQGTQVTVSSHHHHHH
1.1e-12	MSLN targeting trispecific protein 9H2 (protein, part only; not given: Albumin and CD3 binders, linkers, part only) chain, part: QVQLVESGGGLVQAGGSLRLSCAASGSTSSINTMYWYRQAPGKERELVAFISSGGSTNVRDSVKGRFSVSRDSAKNIVYLQMNSLTPEDTAVYYCNTYIPLRGTLHDYWGQGTQVTVSSHHHHHH
1.5e-12	MSLN targeting trispecific protein 5C2 (protein, part only; not given: Albumin and CD3 binders, linkers, part only) chain, part: QVQLVESGGGLVQAGGSLRLSCAASGSTSSINTMYWFRQAPGEERELVATINRGGSTNVRDSVKGRFSVSRDSAKNIVYLQMNRLKPEDTAVYYCNTYIPYGGTLHDFWGQGTQVTVSSHHHHHH
1.4e-12	MSLN targeting trispecific protein 10B3 (protein, part only; not given: Albumin and CD3 binders, linkers, part only) chain, part: QVQLVESGGGLVQAGGSLRLSCAASGSTSSINTMYWYRQAPGKERELVAFISSGGSTNVRDSVKGRFSVSRDSAKNIVYLQMNSLKPEDTAVYYCNTYIPYGGTLHDFWGQGTQVTVSSHHHHHH
4e-09	MSLN targeting trispecific protein 3G1 (protein, part only; not given: Albumin and CD3 binders, linkers, part only) chain, part: QVRLVESGGGLVQAGESLRLSCAASGRPFSINTMGWYRQAPGKQRELVASISSSGDFTYTDSVKGRFTISRDNAKNTVYLQMNSLKPEDTAVYYCNARRTYLPRRFGSWGQGTQVTVSSHHHHHH
8e-13	MSLN targeting trispecific protein 12C2 (protein, part only; not given: Albumin and CD3 binders, linkers, part only) chain, part: QVQLVESGGGLVQTGGSLRLSCAASGLTFGVYGMEWFRQAPGKQREWVASHTSTGYVYYRDSVKGRFTISRDNAKSTVYLQMNSLKPEDTAIYYCKANRGSYEYWGQGTQVTVSSHHHHHH
1.4e-11	MSLN targeting trispecific protein 5D2 (protein, part only; not given: Albumin and CD3 binders, linkers, part only) chain, part: QVQLGESGGGLVQAGGSLRLSCAASGSIFSPNAMIWHRQAPGKQREPVASINSSGSTNYGDSVKGRFTVSRDIVKNTMYLQMNSLKPEDTAVYYCSYSDFRRGTQYWGQGTQVTVSSHHHHHH
1.1e-09	MSLN targeting trispecific protein 12D1 (protein, part only; not given: Albumin and CD3 binders, linkers, part only) chain, part: QVRLVESGGGLVQAGGSLRLSCAASISAFRLMSVRWYRQDPSKQREWVATIDQLGRTNYADSVKGRFAISKDSTRNTVYLQMNMLRPEDTAVYYCNAGGGPLGSRWLRGRHWGQGTQVTVSSHHHHHH
1.6e-12	MSLN targeting trispecific protein 2A2 (protein, part only; not given: Albumin and CD3 binders, linkers, part only) chain, part: QVQLVESGGGLVQAGGSLTLSCAASGSTFSIRAMRWYRQAPGTERDLVAVIYGSSTYYADAVKGRFTISRDNAKNTLYLQMNNLKPEDTAVYYCNADTIGTARDYWGQGTQVTVSSHHHHHH
5.3e-12	MSLN targeting trispecific protein 5F2 (protein, part only; not given: Albumin and CD3 binders, linkers, part only) chain, part: QVQLVESGGGLVQAGGSLRLSCAASGSTFRIRVMRWYRQAPGTERDLVAVISGSSTYYADSVKGRFTISRDNAKNTLYLQMNNLKPEDTAVYYCNADDSGIARDYWGQGTQVTVSSHHHHHH
1.8e-12	MSLN targeting trispecific protein 3B4 (protein, part only; not given: Albumin and CD3 binders, linkers, part only) chain, part: QVQLVESGGGLVQAGGSLRLSCVASGSTSNINNMRWYRQAPGKERELVAVITRGGYAIYLDAVKGRFTISRDNANNAIYLEMNSLKPEDTAVYVCNADRVEGTSGGPQLRDYFGQGTQVTVSSHHHHHH
> 1e-07	MSLN targeting trispecific protein 9F3 (protein, part only; not given: Albumin and CD3 binders, linkers, part only) chain, part: QVQLVESGGGLVQAGGSLRLSCAASGSIPSIEQMGWYRQAPGKQRELVAALTSGGRANYADSVKGRFTISGDNVRNMVYLQMNSLKPEDTAIYYCSAGRFKGDYAQRSGMDYWGKGTLVTVSSHHHHHH
5.9e-12	MSLN targeting trispecific protein 5H1 (protein, part only; not given: Albumin and CD3 binders, linkers, part only) chain, part: QVQLVESGGGLVQPGGSLRLSCAASGGDWSANFMYWYRQAPGKQRELVARISGRGVVDYVESVKGRFTISRDNAKNTVYLQMNSLKPEDTAVYYCAVASYWGQGTQVTVSSHHHHHH
1.9e-09	MSLN targeting trispecific protein 2A4 (protein, part only; not given: Albumin and CD3 binders, linkers, part only) chain, part: QVQLVESGGGLVQARGSLRLSCTASGRTIGINDMAWYRQAPGNQRELVATITKGGTTDYADSVDGRFTISRDNAKNTVYLQMNSLKPEDTAVYYCNTKRREWAKDFEYWGQGTQVTVSSHHHHHH
1e-08	MSLN targeting trispecific protein 7C4 (protein, part only; not given: Albumin and CD3 binders, linkers, part only) chain, part: QVQLVESGGGLVPSGGSLRLSCAASGATSAITNLGWYRRAPGQVREMVARISVREDKEDYEDSVKGRFTISRDNTQNLVYLQMNNLQPHDTAIYYCGAQRWGRGPGTTWGQGTQVTVSSHHHHHH
2e-09	MSLN targeting trispecific protein 6H2 (protein, part only; not given: Albumin and CD3 binders, linkers, part only) chain, part: QVQLVESGGGLVQAGGSLRLSCAASGRTLSRYAMGWFRQAPGKERQFVAAISRSGGTTRYSDSVKGRFTISRDNAANTFYLQMNNLRPDDTAVYYCNVRRRGWGRTLEYWGQGTQVTVSSHHHHHH
8.2e-10	MSLN targeting trispecific protein 6F3 (protein, part only; not given: Albumin and CD3 binders, linkers, part only) chain, part: QVQPVESGGGLVQPGGSLRLSCVVSGSDFTEDAMAWYRQASGKERESVAFVSKDGKRILYLDSVRGRFTISRDIYKKTVYLQMDNLKPEDTGVYYCNSAPGAARNVWGQGTQVTVSSHHHHHH
1.2e-09	MSLN targeting trispecific protein 2A1 (protein, part only; not given: Albumin and CD3 binders, linkers, part only) chain, part: QVQPVESGGGLVQPGGSLRLSCVVSGSDFTEDAMAWYRQASGKERESVAFVSKDGKRILYLDSVRGRFTISRDIDKKTVYLQMDNLKPEDTGVYYCNSAPGAARNYWGQGTQVTVSSHHHHHH
9.5e-09	MSLN targeting trispecific protein 2C2 (protein, part only; not given: Albumin and CD3 binders, linkers, part only) chain, part: QVQLVESGGGLVQAGESRRLSCAVSGDTSKFKAVGWYRQAPGAQRELLAWINNSGVGNTAESVKGRFTISRDNAKNTVYLQMNRLTPEDTDVYYCRFYRRFGINKNYWGQGTQVTVSSHHHHHH
> 1e-07	MSLN targeting trispecific protein 9B1 (protein, part only; not given: Albumin and CD3 binders, linkers, part only) chain, part: QVQLVESGGGLVQPGGSLRLSCAASGRTFSVRGMAWYRQAGNNRALVATMNPDGFPNYADAVKGRFTISWDIAENTVYLQMNSLNSEDTTVYYCNSGPYWGQGTQVTVSSHHHHHH
2.2e-12	MSLN targeting trispecific protein 11F3 (protein, part only; not given: Albumin and CD3 binders, linkers, part only) chain, part: QVQLVESGGGLVQAGGSLRLSCVASGRTSTIDTMYWHRQAPGNERELVAYVTSRGTSNVADSVKGRFTISRDNAKNTAYLQMNSLKPEDTAVYYCSVRTTSYPVDFWGQGTQVTVSSHHHHHH
